# Data taken from paper PMC8930179.
# Biological target: B38-CAP
# Test: SEC
substance,measurement,value
B38-CAP (enzyme),stoichiometry N,2
